The text below walks through data of patent publication US20230312753A1 (IMMUNORIZON, published 2023).

In one experiment the target is T1, NKG2A-CD94-ECD-hFc (human, UniProt P26715 94-233; Q13241 32-179, limits assumed).
T1 construct: extracellular domain; Lot 20200724002, 'provided by CP'; the two-chain layout here is only the reading of the name; also called human NKG2A (recombinant); NKG2A antigen; not shown: human Fc (hFc)
Put plainly: ELISA on coated NKG2A-CD94-ECD-hFc (FIG. 43C). As to the method: (§1) Methods: ELISA binding of Tribody/ProTribody antibody constructs to antigens: Dilute target protein (hCD3epsilon-His (cat # 10977-H08S, supplier Sino Biological); h5T4-His (cat# 19845-H08H, supplier Sino Biological); NKG2A-CD94-ECD-hFc, Lot:20200724002, provided by CP; or NKG2D-ECD-hFc, Lot: 20200413002, provided by CP) into PBS with final concentration of 0.01 µg/mL for hCD3epsilon-His, 0.3 µg/mL for h5T4-His, 1 µg/mL for NKG2A-CD94-ECD-hFc and 0.7 µg/mL for hNKG2D-ECD-hFc respectively and coat 100 µL/well on ELISA plate (cat: 9018, supplier Corning) respectively. Incubate O/N, 4° C. The plates were blocked with 250 µL 1% BSA in PBST for 1 hr at 37° C.Wash 4 times with PBST. All the washes are done using Biotek (Elx 405). All the Tribody set antibodies were diluted to 400 nM and make 4-fold serially dilutions (12 points, including 0 point). Add 100 µL/well diluted antibody constructs solution to plate, incubate for 1 hr at 37° C.Wash 4 times with PBST. Add 100 µL/well anti-human kappa light chain-HRP (1:10000), incubate for 0.5 hr at 37° C. Wash 4 times with PBST. 100 µL/well of TMB substrate was added and incubated at room temperature for 5 min. 100 µL/well of 1N HCl to terminate reaction. Plates were read using ELISA plate reader at 450 nm wavelength (instrunet SpectraMax M5e). Data Analysis was performed using Graphpad prism 5 software by using nonlinear regression (curve fit): log (agonist) vs. response, agonist is antibody concentration (nM) and response is OD value.
In general terms: ELISA stands for enzyme-linked immunosorbent assay.

Experiment [1] addresses T2, hCD3epsilon-His (recombinant human CD3 epsilon) (human, UniProt P07766 23-126).
T2 construct: Bought protein; also called recombinant hCD3ε protein; human CD3ε
Put plainly: ELISA on coated hCD3epsilon-His (FIG. 43A). As to the method: as §1, with “Data Analysis was performed using Graphpad prism 5 software by using nonlinear regression (curve fit): log (agonist) vs. response, agonist is antibody concentration (nM) and response is OD value.” left out

Experiment [2] addresses T3, NKG2A on NK92 cells (endogenous) (UniProt P26715 1-233, limits assumed).
T3 construct: whole, on cells
Briefly: FACS on NK92 cells (FIG. 45C). As to the method: (§2) Suspension cultured cells was harvested directly, and adherent cell were digested using TrypLE Express Enzyme (cat: 12604-013, supplier Life technologies). Centrifuge at 1000 rpm for 5 min and discard the supernatant. Cells are suspended at a concentration of 2×10⁶/mL in FACS buffer (2% FBS in PBS) and add 100 µL/well of cell suspension to the plate (cat #3799, supplier Corning). Centrifuging the plates at 2000 rpm for 5 min and discard the supernatant. Re-suspend the cells in 100 µL/well of Tribody set antibodies (400 nM start, 4-fold dilution, 8 point including 0 point) and incubate the plate for 60 min at 4° C. Centrifuge the plate at 2000 rpm, 4° C. for 5 min and discard supernatant. Then wash the cells 3 times with 170 µL FACS buffer. Re-suspend the cells at 100 µL/well with secondary antibody (goat anti-human Ig Fab-FITC, Cat # 2085-02, Southern biotech) with 1:400 dilution and incubate the plate for 30 min at 4° C. in dark. Centrifuge the plate at 2000 rpm, 4° C. for 5 min and discard supernatant. […] The fluorescence intensity of the staining was measured using flow cytometer (BD, FACSVerse). The geometric mean fluorescence intensity (GMFI; median fluorescence intensity (MFI)) of set antibodies staining was calculated (BD FACSuite software). Dose-response curves were generated and EC50s for thetrispecific variants binding were calculated using GraphPad Prism software.

Experiment [3] has as its target T4, 5T4 on cells (NCI-H226 endogenous; CHO over-expressing 5T4) (UniProt Q13641 32-420, limits assumed).
T4 construct: whole, on cells
T4 sequence (looked up): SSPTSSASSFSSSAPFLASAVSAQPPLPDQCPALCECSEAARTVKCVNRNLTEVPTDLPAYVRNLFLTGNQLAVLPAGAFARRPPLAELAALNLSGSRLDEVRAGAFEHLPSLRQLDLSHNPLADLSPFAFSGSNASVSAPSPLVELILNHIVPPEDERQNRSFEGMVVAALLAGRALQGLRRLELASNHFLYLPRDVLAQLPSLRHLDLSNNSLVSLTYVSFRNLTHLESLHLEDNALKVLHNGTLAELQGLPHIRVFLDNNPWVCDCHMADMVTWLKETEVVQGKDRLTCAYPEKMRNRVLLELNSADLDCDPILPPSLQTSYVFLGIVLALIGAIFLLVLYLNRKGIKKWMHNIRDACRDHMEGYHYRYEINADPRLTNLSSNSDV
Put plainly: FACS on CHO cells over-expressing ectopic 5T4 (FIG. 45D). As to the method: (§3) Then wash the cells 3 times with 170 µL FACS buffer. Re-suspend the cells at 100 µL/well with secondary antibody (goat anti-human Ig Fab-FITC, Cat # 2085-02, Southern biotech) with 1:400 dilution and incubate the plate for 30 min at 4° C. in dark. Centrifuge the plate at 2000 rpm, 4° C. for 5 min and discard supernatant. Then wash the cells 3 times with FACS buffer and analyze the sample with FACS verse. The fluorescence intensity of the staining was measured using flow cytometer (BD, FACSVerse). The geometric mean fluorescence intensity (GMFI; median fluorescence intensity (MFI)) of set antibodies staining was calculated (BD FACSuite software). Dose-response curves were generated and EC50s for thetrispecific variants binding were calculated using GraphPad Prism software.
(§4) Results: The expressed trispecific constructs were analyzed for their binding to cells expressing endogenous CD3ε, 5T4 and NKG2A/NKG2D. […] (FIG. 45F).

For experiment [4], the target named is T5, h5T4-His (recombinant human 5T4) (human, UniProt Q13641 32-355, limits assumed).
T5 construct: Bought protein; also called recombinant 5T4
T5 sequence (looked up): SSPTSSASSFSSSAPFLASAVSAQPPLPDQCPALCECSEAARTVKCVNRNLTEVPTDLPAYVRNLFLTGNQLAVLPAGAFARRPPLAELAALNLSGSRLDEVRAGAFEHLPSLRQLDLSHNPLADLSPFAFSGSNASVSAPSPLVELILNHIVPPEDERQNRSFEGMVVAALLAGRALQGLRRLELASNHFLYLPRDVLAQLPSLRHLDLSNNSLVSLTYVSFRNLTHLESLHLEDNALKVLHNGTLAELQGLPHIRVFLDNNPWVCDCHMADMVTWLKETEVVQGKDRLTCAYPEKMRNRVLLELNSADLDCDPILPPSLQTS
Put plainly: ELISA on coated h5T4-His (FIG. 43B). As to the method:
as §1

Experiment [5] has as its target T6, human CD3 epsilon on cells (Jurkat T cells, endogenous) (human, UniProt P07766 23-207).
T6 construct: whole, on cells; On cells CD3 epsilon stands in the TCR/CD3 complex; only the epsilon chain is named as target; also called hCD3ε on Jurkat; CD3ε expressing cells
Briefly: FACS on Jurkat T cells, endogenous hCD3ε (FIG. 45A). As to the method:
as §2, with “buffer.” for “buffer. Re-suspend the cells at 100 µL/well with secondary antibody (goat anti-human Ig Fab-FITC, Cat # 2085-02, Southern biotech) with 1:400 dilution and incubate the plate for 30 min at 4° C. in dark. Centrifuge the plate at 2000 rpm, 4° C. for 5 min and discard supernatant.”
Results: The expressed trispecific constructs were analyzed for their binding to cells expressing endogenous CD3ε, 5T4 and NKG2A/NKG2D.

The target of experiment [6] is T7, NKG2A/CD94 on CHO cells (CHOK1-NKG2A-CD94) (human, UniProt P26715 1-233; Q13241 1-179, limits assumed).
T7 construct: whole, on cells; also called CHO cells over-expressing NKG2A/CD94; CHO cell line over expressing ectopic NKG2A
Put plainly: FACS on CHO cells over-expressing NKG2A/CD94 (FIG. 45E). As to the method:
as §3, §4

T6 sequence (P07766 23-207): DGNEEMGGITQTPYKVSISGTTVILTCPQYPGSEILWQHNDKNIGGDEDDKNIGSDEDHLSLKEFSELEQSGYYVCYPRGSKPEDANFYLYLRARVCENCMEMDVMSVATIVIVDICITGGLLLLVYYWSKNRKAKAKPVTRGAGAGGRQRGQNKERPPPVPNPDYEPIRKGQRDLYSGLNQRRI
T7 sequence (P26715 whole entry, chain 1 of 2): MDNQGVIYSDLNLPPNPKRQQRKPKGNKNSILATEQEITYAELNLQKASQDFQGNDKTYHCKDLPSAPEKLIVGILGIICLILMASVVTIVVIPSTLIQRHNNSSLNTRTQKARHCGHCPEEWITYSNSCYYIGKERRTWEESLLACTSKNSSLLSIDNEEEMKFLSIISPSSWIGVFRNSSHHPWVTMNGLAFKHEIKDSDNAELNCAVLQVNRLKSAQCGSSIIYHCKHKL
T7 sequence (Q13241 whole entry, chain 2 of 2): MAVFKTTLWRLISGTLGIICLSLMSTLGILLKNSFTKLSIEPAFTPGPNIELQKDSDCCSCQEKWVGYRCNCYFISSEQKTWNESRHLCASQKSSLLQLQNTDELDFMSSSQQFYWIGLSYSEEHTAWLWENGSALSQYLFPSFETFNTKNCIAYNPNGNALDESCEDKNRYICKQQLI
T3 sequence (P26715 whole entry): as the sequence (P26715 whole entry, chain 1 of 2) above
T1 sequence (P26715 94-233 limits assumed, chain 1 of 2): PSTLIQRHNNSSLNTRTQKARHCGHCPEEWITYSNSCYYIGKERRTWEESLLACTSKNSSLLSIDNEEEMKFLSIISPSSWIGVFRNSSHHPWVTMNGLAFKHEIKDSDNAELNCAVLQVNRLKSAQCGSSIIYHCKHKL
T1 sequence (Q13241 32-179 limits assumed, chain 2 of 2): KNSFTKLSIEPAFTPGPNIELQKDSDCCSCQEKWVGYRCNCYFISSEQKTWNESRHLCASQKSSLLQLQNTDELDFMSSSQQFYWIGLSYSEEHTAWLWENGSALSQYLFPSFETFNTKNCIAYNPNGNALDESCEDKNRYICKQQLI
T2 sequence (P07766 23-126 limits assumed): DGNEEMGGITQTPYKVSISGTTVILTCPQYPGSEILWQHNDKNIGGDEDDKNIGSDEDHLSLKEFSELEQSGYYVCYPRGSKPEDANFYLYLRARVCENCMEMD

B1: IM-1093 Tribody, NKG2A mutant variant (other)
heavy: GGSGGSEVQLVESGGGLVQPGGSLRLSCAASGFTFNTYAMNWVRQAPGKGLEWVARIRSKYNNYATYYADSVKDRFTISRDDSKNTLYLQMNSLRAEDTAVYYCVRHGNFGNSYVSWFAYWGQGTMVTVSSASTKGPSVFPLAPSSKSTSGGTAALGCLVKDYFPEPVTVSWNSGALTSGVHTFPAVLQSSGLYSLSSVVTVPSSSLGTQTYICNVNHKPSNTKVDKRVEPKSCPPCGGGGSDIQMTQSPSSLSASVGDRVTITCRASENIYSALAWYQQKPGKAPKLLIYNAKTLAEGVPSRFSGSGSGTDFTLTISSLQPEDFATYYCQHHAGTPRTFGGGTKVEIKGGGGSGGGGSGGGGSGGGGSQVQLVQSGAEVKKPGASVKVSCKASGYTFTSYWMNWVRQAPGQGLEWMGRIDPYDSETHYAQKLQGRVTMTTDTSTSTAYMELRSLRSDDTAVYYCARGGYDFDVDTLYWFFDVWGQGTTVTVSS
light: GGSGGSQAVVTQEPSLTVSPGGTVTLTCRSSTGAVTTSNYANWVQQKPGQAPRGLIGGTNKRAPGTPARFSGSLLGGKAALTLSGVQPEDEAEYYCALWYSNLWVFGGGTKLTVLGQPKAAPSVTLFPPSSEELQANKATLVCLISDFYPGAVTVAWKADSSPVKAGVETTTPSKQSNNKYAASSYLSLTPEQWKSHRSYSCQVTHEGSTVEKTVAPTECPPCSGGGSDIQMTQSPSSLSASVGDRVTITCRASQGISNYLAWFQQKPGKAPKSLIYRANRLQSGVPSRFSGSGSGTDFTLTISSLQPEDVATYYCLQYDDFPWTFGQGTKLEIKGGGGSGGGGSGGGGSGGGGSQVQLVQSGAEVKKPGASVKVSCKASGYTFTSFWMHWVRQAPGQGLEWMGRIDPNRGGTEYNEKAKSRVTMTADKSTSTAYMELSSLRSEDTAVYYCAGGNPYYPMDYWGQGTTVTVSS
notes: also called NKG2A mutated Tribody
In the case of B1, the binding result (in the experiment with NKG2A-CD94-ECD-hFc; in experiment [2]; in experiment [6]) was “no binding (tested: dilution series from 400 nM)” in each case. Further, the half-maximal effective concentration (EC50) in experiment [1] amounted to 1.84 nM; in experiment [3] it was 1.3 nM; in experiment [4] it was 12 nM; in experiment [5], 1.3 nM.

One may read the EC50 as the midpoint of the concentration-response curve.
